Measurements taken from article PMC3134637.
Read-outs that look alike come from different tables or passages of the source.

Experiments:
Assay in all cases: HiTS-FLIP
[1] = molecular target: T1, 6xHis-mOrange-Gcn4p (Saccharomyces cerevisiae, UniProt P03069 1-281)
[2] = molecular target: T1, 6xHis-mOrange-Gcn4p; remark: listed apart in the source
[3] = molecular target: T1, 6xHis-mOrange-Gcn4p; remark: listed apart in the source
[4] = molecular target: T1, 6xHis-mOrange-Gcn4p; remark: listed apart in the source
[5] = molecular target: T1, 6xHis-mOrange-Gcn4p; remark: listed apart in the source
[6] = molecular target: T1, 6xHis-mOrange-Gcn4p; remark: listed apart in the source

T1 sequence (P03069 whole entry): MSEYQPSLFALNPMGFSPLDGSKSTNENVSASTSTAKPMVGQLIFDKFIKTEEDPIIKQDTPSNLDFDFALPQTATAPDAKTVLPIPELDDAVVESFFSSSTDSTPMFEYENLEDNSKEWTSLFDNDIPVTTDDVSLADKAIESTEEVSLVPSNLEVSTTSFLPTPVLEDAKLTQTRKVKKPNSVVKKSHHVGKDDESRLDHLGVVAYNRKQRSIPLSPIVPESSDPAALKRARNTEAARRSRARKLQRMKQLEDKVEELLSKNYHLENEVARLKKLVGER

B1: 11mer flanks G,A (dsDNA)
DNA 1: GATGACTCATA
DNA 2: TATGAGTCATC
binding result [1]: binds

B2: 11mer flanks C,A (dsDNA)
DNA 1: CATGACTCATA
DNA 2: TATGAGTCATG
binding result [1]: binds

B3: consensus 7mer TGACTCA (dsDNA)
DNA 1: TGACTCA
DNA 2: TGAGTCA
binding result [2]: binds

B4: 9mer ATGACTCAT (dsDNA)
DNA 1: ATGACTCAT
DNA 2: ATGAGTCAT
binding result [3]: binds

B5: 10mer ATGACTCATA (dsDNA)
DNA 1: ATGACTCATA
DNA 2: TATGAGTCAT
binding result [4]: binds

B6: 10mer TATGACTCAT (dsDNA)
DNA 1: TATGACTCAT
DNA 2: ATGAGTCATA
binding result [4]: binds

B7: 11mer consensus TATGACTCATA (T,A flanks) (dsDNA)
DNA 1: TATGACTCATA
DNA 2: TATGAGTCATA
binding result [5]: binds

B8: adjacent half-sites ATGACGTCAT (dsDNA)
DNA 1: ATGACGTCAT
DNA 2: ATGACGTCAT
binding result [6]: binds

B9: 11mer flanks T,C (dsDNA)
DNA 1: TATGACTCATC
DNA 2: GATGAGTCATA
binding result [1]: binds
